The target in assay [1] is T1, P2 (human).
T1 construct: Synthetic overlapping peptide of MUC1-C/ECD; also called peptide P2
T1 peptide: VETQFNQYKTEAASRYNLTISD
In words: ELISA on coated MUC1-C/ECD antigen with or without peptide (indirect). On the procedure: (§1) Characterized of 7B8 and 3D1 antibodies. Linear epitope mapping of 7B8 and 3D1 clones was performed using three overlapping peptides spanning the entire MUC1-C/ECD region (58 amino acids) were synthesized. ELISA assays were performed using 7B8 or 3D1 purified antibodies in the presence or absence of P1, P2 or P3 peptides. […] Conformational epitope mapping of 7B8 and 3D1 was performed using eight critical individual point mutants in the MUC1-C/ECD region by ELISA. […] These findings indicate that D19 is a part of the conformational core/pocket for 3D1 binding. ZR-75-1 breast carcinoma cells were used determine 7B8 or 3D1 antibody binding in a competitive format with MUC1-C/ECD and analyzed by FLOW. […] These findings indicate that the conformational binding epitopes of 7B8 and 3D1 are different. The sequencing results for hybridoma 3D1 is shown in FIG. 50 and is discussed in greater detail below.
A general note: ELISA stands for enzyme-linked immunosorbent assay.

Assay [2] has as its target T2, P3 (human).
T2 construct: Synthetic overlapping peptide of MUC1-C/ECD; also called peptide P3
T2 peptide: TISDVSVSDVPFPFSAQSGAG
The assay is described as above. On the procedure: as §1

Assay [3] addresses T3, P1 (human).
T3 construct: Synthetic overlapping peptide of MUC1-C/ECD; also called peptide P1
T3 peptide: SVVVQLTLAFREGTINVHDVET
The description is as above. As for the experimental part: as §1

The target in assay [4] is T4, MUC1-C/ECD protein (human, UniProt P15941 1098-1155).
T4 construct: also called MUC1-C/ECD antigen; the antigen
T4 sequence: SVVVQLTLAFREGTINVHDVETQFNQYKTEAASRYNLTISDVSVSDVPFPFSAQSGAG
Description: ELISA, plates coated with the MUC1-C/ECD antigen; soluble MUC1-C/ECD protein also abrogated 3D1 binding to cells.

B1: 441.3.3D1.D6.D11.B1.F10 (antibody, V domains shown)
VH: QVQLQQSGAELVRPGSSVKISCKTSGYAFSNFWMNWVKQRPGQGLEWIGQIYPGDGDTNYNGKFKGKATLTADKSSSTAYMQLSSLTSEASAVYFCARSYYRSAWFAYWGQGTLVSVSA
VL: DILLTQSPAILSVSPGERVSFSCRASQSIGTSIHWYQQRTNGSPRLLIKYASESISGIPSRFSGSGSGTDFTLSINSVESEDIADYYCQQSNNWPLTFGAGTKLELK
notes: Mouse hybridoma antibody; also called Anti-Muc-1; 536064-1
For B1, the binding result in assay [1] is given as “no binding”; in assay [2], “no binding”; in assay [3] it was “no binding”; in assay [4], “binds”.
